From paper PMC9245003

How the values were obtained:
Assay in all cases: SEC-MALS
[1] = target: gH/gL 60-mer nanoparticle (gH-C153T-I3 / gL) (Epstein-Barr virus) (UniProt P03231)
[2] = target: gH/gL 7-mer nanoparticle (gH-C153T-IMX313 / gL) (Epstein-Barr virus | Gallus gallus) (UniProt P03231)
[3] = target: gH/gL 24-mer nanoparticle (gH-ferritin / gL) (Epstein-Barr virus | Helicobacter pylori) (UniProt P03231)

Substance: gH/gL 60-mer nanoparticle (gH-C153T-I3 / gL) (from UniProt P03231;P03212) (complex)
- stoichiometry N [1]: 60

Substance: gH/gL 7-mer nanoparticle (gH-C153T-IMX313 / gL) (from UniProt P03231;P03212) (complex)
- stoichiometry N [2]: 7

Substance: gH/gL 24-mer nanoparticle (gH-ferritin / gL) (from UniProt P03231;P03212) (complex)
- stoichiometry N [3]: 24
